In patent US20160108091A1 (Novartis, published 2016):
Bridges are numbered along the chain shown (N, C = ends). [ ]: non-standard residue; d: D form. The star is where a group is joined. NMeF = CN[C@@H](Cc1ccccc1)C(=O)O; pGlu = O=C1CC[C@@H](C(=O)O)N1; NHPhenethyl = c1ccc(CCN*)cc1; d(hCys) = N[C@H](CCS)C(=O)O; dNle = CCCC[C@@H](N)C(=O)O; hCys = N[C@@H](CCS)C(=O)O; Nle = CCCC[C@H](N)C(=O)O; dAbu = CC[C@@H](N)C(=O)O

T1: human APJ receptor (hAPJ) (human, UniProt P35414 1-380)
T1 sequence (looked up): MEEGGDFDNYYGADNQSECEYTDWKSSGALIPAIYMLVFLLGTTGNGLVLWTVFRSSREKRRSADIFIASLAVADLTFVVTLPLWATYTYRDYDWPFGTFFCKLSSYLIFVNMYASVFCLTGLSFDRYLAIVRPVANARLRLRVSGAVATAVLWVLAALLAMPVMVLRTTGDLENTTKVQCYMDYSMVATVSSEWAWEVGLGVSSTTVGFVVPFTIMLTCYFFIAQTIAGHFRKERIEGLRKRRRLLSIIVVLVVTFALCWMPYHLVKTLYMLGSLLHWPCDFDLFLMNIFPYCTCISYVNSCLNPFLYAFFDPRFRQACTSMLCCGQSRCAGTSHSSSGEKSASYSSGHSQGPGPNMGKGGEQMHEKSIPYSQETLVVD


Biological target: T1, human APJ receptor (hAPJ)
Assay: cell-based or functional assay

| Binder | hAPJ Ca^2+ Flux EC50 [nM] |
| --- | --- |
| [pGlu]RCRLSCKGP[Nle]PF-OH (disulfide 3-7; SMILES CCCC[C@H](NC(=O)[C@@H]1CCCN1C(=O)CNC(=O)[C@H](CCCCN)NC(=O)[C@@H]1CSSC[C@H](NC(=O)[C@H](CCCNC(=N)N)NC(=O)[C@@H]2CCC(=O)N2)C(=O)N[C@@H](CCCNC(=N)N)C(=O)N[C@@H](CC(C)C)C(=O)N[C@@H](CO)C(=O)N1)C(=O)N1CCC[C@H]1C(=O)N[C@@H](Cc1ccccc1)C(=O)O) [pE-R-C*-R-L-S-C*-K-G-P-Nle-P-F-OH] | 1 |
| Ac-[d(hCys)]RPRLS[hCys]KGP[Nle]PF-OH (disulfide 1-7; SMILES CCCC[C@H](NC(=O)[C@@H]1CCCN1C(=O)CNC(=O)[C@H](CCCCN)NC(=O)[C@@H]1CCSSCC[C@@H](NC(C)=O)C(=O)N[C@@H](CCCNC(=N)N)C(=O)N2CCC[C@H]2C(=O)N[C@@H](CCCNC(=N)N)C(=O)N[C@@H](CC(C)C)C(=O)N[C@@H](CO)C(=O)N1)C(=O)N1CCC[C@H]1C(=O)N[C@@H](Cc1ccccc1)C(=O)O) [Ac-(D-hC)*-R-P-R-L-S-hC*-K-G-P-Nle-P-F-OH] | 14.1 |
| ERPCLSCKGPLPF (pE at 1; disulfide C4-C7; Nle at 11; (N-Me)F at 13; free C-terminal acid) [pE-R-P-C*-L-S-C*-K-G-P-Nle-P-(N-Me)F-OH] | 4.2 |
| Ac-[d(hCys)]RPRLS[hCys]KGP[dF][dA][dF]-OH (disulfide 1-7; SMILES CC(=O)N[C@@H]1CCSSCC[C@@H](C(=O)N[C@@H](CCCCN)C(=O)NCC(=O)N2CCC[C@H]2C(=O)N[C@H](Cc2ccccc2)C(=O)N[C@H](C)C(=O)N[C@H](Cc2ccccc2)C(=O)O)NC(=O)[C@H](CO)NC(=O)[C@H](CC(C)C)NC(=O)[C@H](CCCNC(=N)N)NC(=O)[C@@H]2CCCN2C(=O)[C@H](CCCNC(=N)N)NC1=O) [Ac-(D-hC)*-R-P-R-L-S-(hC)*-K-G-P-f-a-f-OH] | 174 |
| ERPCLSCKGPFAF (pE at 1; hC (L-homocysteine) at 4; disulfide hC4-C7; D-Phe (f) at 11; D-Ala (a) at 12; D-Phe (f) at 13; free C-terminal acid) [pE-R-P-hC*-L-S-C*-K-G-P-f-a-f-OH] | 4.2 |
| ERPCLSCKGPLAF (pE at 1; disulfide C4-C7; D-Nle at 11; D-Ala (a) at 12; D-Phe (f) at 13; free C-terminal acid) [pE-R-P-C*-L-S-C*-K-G-P-(D-Nle)-a-f-OH] | 1.9 |
| [pGlu]RCRLSCK[dA]P[dNle][dA][dF]-OH (disulfide 3-7; SMILES CCCC[C@@H](NC(=O)[C@@H]1CCCN1C(=O)[C@@H](C)NC(=O)[C@H](CCCCN)NC(=O)[C@@H]1CSSC[C@H](NC(=O)[C@H](CCCNC(=N)N)NC(=O)[C@@H]2CCC(=O)N2)C(=O)N[C@@H](CCCNC(=N)N)C(=O)N[C@@H](CC(C)C)C(=O)N[C@@H](CO)C(=O)N1)C(=O)N[C@H](C)C(=O)N[C@H](Cc1ccccc1)C(=O)O) [pE-R-C*-R-L-S-C*-K-a-P-(D-Nle)-a-f-OH] | 72.2 |
| Ac-[dC]RPRLS[hCys]KGP[dNle][dA][dF]-OH (not fully specified; printed as Ac-c-R-P-R-L-S-(hC)-K-G-P-(D-Nle)-a-f-OH; cysteine pairing not given here) [Ac-c-R-P-R-L-S-(hC)-K-G-P-(D-Nle)-a-f-OH] | 79.3 |
| ERPCLSCKGPLP (pE at 1; disulfide C4-C7; Nle at 11; C-terminal NH(Phenethyl) amide on P12) [pE-R-P-C*-L-S-C*-K-G-P-Nle-P-NH(Phenethyl)] | 0.4 |
| ERPCLSCKGPLAY (pE at 1; D-Cys (c) at 4; D-hC at 7; disulfide 4-7; D-Nle at 11; D-Ala (a) at 12; D-Tyr (y) at 13; free C-terminal acid) [pE-R-P-c*-L-S-(D-hC)*-K-G-P-(D-Nle)-a-y-OH] | 937 |
| [pGlu]RCRLSCKAP[dNle][dA][dF]-OH (disulfide 3-7; SMILES CCCC[C@@H](NC(=O)[C@@H]1CCCN1C(=O)[C@H](C)NC(=O)[C@H](CCCCN)NC(=O)[C@@H]1CSSC[C@H](NC(=O)[C@H](CCCNC(=N)N)NC(=O)[C@@H]2CCC(=O)N2)C(=O)N[C@@H](CCCNC(=N)N)C(=O)N[C@@H](CC(C)C)C(=O)N[C@@H](CO)C(=O)N1)C(=O)N[C@H](C)C(=O)N[C@H](Cc1ccccc1)C(=O)O) [pE-R-C*-R-L-S-C*-K-A-P-(D-Nle)-a-f-OH] | 85.8 |
| ERPCLSCKGPLF (pE at 1; disulfide C4-C7; D-Nle at 11; D-Phe (f) at 12; free C-terminal acid) [pE-R-P-C*-L-S-C*-K-G-P-(D-Nle)-f-OH] | 0.6 |
| Ac-CRPRLSCKGP[Nle]P-NHPhenethyl (disulfide 1-7) [Ac-C*-R-P-R-L-S-C*-K-G-P-Nle-P-NH(Phenethyl)] | 3.2 |
| [pGlu]RCRLSCKGP[dNle][dA][dF]-OH (disulfide 3-7; SMILES CCCC[C@@H](NC(=O)[C@@H]1CCCN1C(=O)CNC(=O)[C@H](CCCCN)NC(=O)[C@@H]1CSSC[C@H](NC(=O)[C@H](CCCNC(=N)N)NC(=O)[C@@H]2CCC(=O)N2)C(=O)N[C@@H](CCCNC(=N)N)C(=O)N[C@@H](CC(C)C)C(=O)N[C@@H](CO)C(=O)N1)C(=O)N[C@H](C)C(=O)N[C@H](Cc1ccccc1)C(=O)O) [pE-R-C*-R-L-S-C*-K-G-P-(D-Nle)-a-f-OH] | 2.9 |
| ERPCLSCKGPLVF (pE at 1; D-hC at 4; hC at 7; disulfide 4-7; D-Nle at 11; D-Nva (D-norvaline) at 12; D-Phe (f) at 13; free C-terminal acid) [pE-R-P-(D-hC)*-L-S-hC*-K-G-P-(D-Nle)-(D-Nva)-f-OH] | 175 |
| Ac-CRPRLSCKGP[Nle]P-NH2 (disulfide 1-7; SMILES CCCC[C@H](NC(=O)[C@@H]1CCCN1C(=O)CNC(=O)[C@H](CCCCN)NC(=O)[C@@H]1CSSC[C@H](NC(C)=O)C(=O)N[C@@H](CCCNC(=N)N)C(=O)N2CCC[C@H]2C(=O)N[C@@H](CCCNC(=N)N)C(=O)N[C@@H](CC(C)C)C(=O)N[C@@H](CO)C(=O)N1)C(=O)N1CCC[C@H]1C(N)=O) [Ac-C*-R-P-R-L-S-C*-K-G-P-Nle-P-NH2] | 74.6 |
| H-RPCLSCK[dNle][dA][dF]-OH (disulfide 3-6; SMILES CCCC[C@@H](NC(=O)[C@H](CCCCN)NC(=O)[C@@H]1CSSC[C@H](NC(=O)[C@@H]2CCCN2C(=O)[C@@H](N)CCCNC(=N)N)C(=O)N[C@@H](CC(C)C)C(=O)N[C@@H](CO)C(=O)N1)C(=O)N[C@H](C)C(=O)N[C@H](Cc1ccccc1)C(=O)O) [H-R-P-C*-L-S-C*-K-(D-Nle)-a-f-OH] | 66.7 |
| [pGlu]R[dC]RLSCKGP[dNle][dAbu][dF]-OH (disulfide 3-7; SMILES CCCC[C@@H](NC(=O)[C@@H]1CCCN1C(=O)CNC(=O)[C@H](CCCCN)NC(=O)[C@@H]1CSSC[C@@H](NC(=O)[C@H](CCCNC(=N)N)NC(=O)[C@@H]2CCC(=O)N2)C(=O)N[C@@H](CCCNC(=N)N)C(=O)N[C@@H](CC(C)C)C(=O)N[C@@H](CO)C(=O)N1)C(=O)N[C@H](CC)C(=O)N[C@H](Cc1ccccc1)C(=O)O) [pE-R-c*-R-L-S-C*-K-G-P-(D-Nle)-(D-abu)-f-OH] | 86.5 |
| [pGlu]RCRLSCKGP[dNle]-NH2 (disulfide 3-7; SMILES CCCC[C@@H](NC(=O)[C@@H]1CCCN1C(=O)CNC(=O)[C@H](CCCCN)NC(=O)[C@@H]1CSSC[C@H](NC(=O)[C@H](CCCNC(=N)N)NC(=O)[C@@H]2CCC(=O)N2)C(=O)N[C@@H](CCCNC(=N)N)C(=O)N[C@@H](CC(C)C)C(=O)N[C@@H](CO)C(=O)N1)C(N)=O) [pE-R-C*-R-L-S-C*-K-G-P-(D-Nle)-NH2] | 227 |
| Ac-[d(hCys)]RPRLS[d(hCys)]KGP[Nle]PF-OH (disulfide 1-7; SMILES CCCC[C@H](NC(=O)[C@@H]1CCCN1C(=O)CNC(=O)[C@H](CCCCN)NC(=O)[C@H]1CCSSCC[C@@H](NC(C)=O)C(=O)N[C@@H](CCCNC(=N)N)C(=O)N2CCC[C@H]2C(=O)N[C@@H](CCCNC(=N)N)C(=O)N[C@@H](CC(C)C)C(=O)N[C@@H](CO)C(=O)N1)C(=O)N1CCC[C@H]1C(=O)N[C@@H](Cc1ccccc1)C(=O)O) [Ac-(D-hC)*-R-P-R-L-S-(D-hC)*-K-G-P-Nle-P-F-OH] | 410 |
| ERPCLSCKGPL (pE at 1; disulfide C4-C7; Nle at 11 with C-terminal NH(Phenethyl) amide) [pE-R-P-C*-L-S-C*-K-G-P-Nle-NH(Phenethyl)] | 0.5 |
| [pGlu]RPCLSCFGP[dNle][dA][dF]-OH (disulfide 4-7; SMILES CCCC[C@@H](NC(=O)[C@@H]1CCCN1C(=O)CNC(=O)[C@H](Cc1ccccc1)NC(=O)[C@@H]1CSSC[C@H](NC(=O)[C@@H]2CCCN2C(=O)[C@H](CCCNC(=N)N)NC(=O)[C@@H]2CCC(=O)N2)C(=O)N[C@@H](CC(C)C)C(=O)N[C@@H](CO)C(=O)N1)C(=O)N[C@H](C)C(=O)N[C@H](Cc1ccccc1)C(=O)O) [pE-R-P-C*-L-S-C*-F-G-P-(D-Nle)-a-f-OH] | 2 |
| ERPCLSCKGPLPF (pE at 1; disulfide C4-C7; Nle at 11; free C-terminal acid) [pE-R-P-C*-L-S-C*-K-G-P-Nle-P-F-OH] | 3.1 |
| Ac-CRPRLSCKGP[Nle]P[NMeF]-OH (disulfide 1-7) [Ac-C*-R-P-R-L-S-C*-K-G-P-Nle-P-(N-Me)F-OH] | 64.5 |
| [pGlu]RCRLS[d(hCys)]KGP[dF][dA][dF]-OH (disulfide 3-7; SMILES CC(C)C[C@@H]1NC(=O)[C@H](CCCNC(=N)N)NC(=O)[C@@H](NC(=O)[C@H](CCCNC(=N)N)NC(=O)[C@@H]2CCC(=O)N2)CSSCC[C@H](C(=O)N[C@@H](CCCCN)C(=O)NCC(=O)N2CCC[C@H]2C(=O)N[C@H](Cc2ccccc2)C(=O)N[C@H](C)C(=O)N[C@H](Cc2ccccc2)C(=O)O)NC(=O)[C@H](CO)NC1=O) [pE-R-C*-R-L-S-(D-hC)*-K-G-P-f-a-f-OH] | 2290 |
| ERPCLSCKGPL (pE at 1; disulfide C4-C7; D-Nle at 11 with C-terminal NH(Phenethyl) amide) [pE-R-P-C*-L-S-C*-K-G-P-(D-Nle)-NH(Phenethyl)] | 3 |
| [pGlu]RCRLSCFGP[dNle][dA][dF]-OH (disulfide 3-7; SMILES CCCC[C@@H](NC(=O)[C@@H]1CCCN1C(=O)CNC(=O)[C@H](Cc1ccccc1)NC(=O)[C@@H]1CSSC[C@H](NC(=O)[C@H](CCCNC(=N)N)NC(=O)[C@@H]2CCC(=O)N2)C(=O)N[C@@H](CCCNC(=N)N)C(=O)N[C@@H](CC(C)C)C(=O)N[C@@H](CO)C(=O)N1)C(=O)N[C@H](C)C(=O)N[C@H](Cc1ccccc1)C(=O)O) [pE-R-C*-R-L-S-C*-F-G-P-(D-Nle)-a-f-OH] | 3.3 |
